In patent US20240010749A1:

Experiments:
[1] = molecular target: human CEACAM5 expressed on cancer cell lines (MKN-45, NCI-H441, SNU-16, SK-CO-1, LS174T) (human) (UniProt P06731); experiment: flow cytometry, MKN-45 cells, 10 µg/mL antibody
[2] = molecular target: human CEACAM5 expressed on cancer cell lines (MKN-45, NCI-H441, SNU-16, SK-CO-1, LS174T) (human) (UniProt P06731); experiment: flow cytometry, NCI-H441 cells, 10 µg/mL antibody

Chain of human CEACAM5 expressed on cancer cell lines (MKN-45, NCI-H441, SNU-16, SK-CO-1, LS174T) (human) (P06731 35-685): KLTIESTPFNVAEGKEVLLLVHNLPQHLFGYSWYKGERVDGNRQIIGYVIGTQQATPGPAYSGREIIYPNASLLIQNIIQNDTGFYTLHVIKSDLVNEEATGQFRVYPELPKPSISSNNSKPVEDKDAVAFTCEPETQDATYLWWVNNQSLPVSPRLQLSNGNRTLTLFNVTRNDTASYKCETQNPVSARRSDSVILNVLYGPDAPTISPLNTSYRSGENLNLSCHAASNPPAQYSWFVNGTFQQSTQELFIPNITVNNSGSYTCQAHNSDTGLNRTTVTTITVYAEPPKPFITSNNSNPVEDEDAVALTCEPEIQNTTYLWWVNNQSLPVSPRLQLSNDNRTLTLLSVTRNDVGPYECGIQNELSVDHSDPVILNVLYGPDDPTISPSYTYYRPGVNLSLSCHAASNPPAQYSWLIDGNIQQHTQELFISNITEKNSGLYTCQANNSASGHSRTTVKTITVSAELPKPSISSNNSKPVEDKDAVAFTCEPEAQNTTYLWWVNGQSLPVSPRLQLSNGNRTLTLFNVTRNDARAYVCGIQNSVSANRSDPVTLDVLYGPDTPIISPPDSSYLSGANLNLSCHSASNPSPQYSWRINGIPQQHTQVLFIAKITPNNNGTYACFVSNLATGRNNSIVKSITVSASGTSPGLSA

## mouse monoclonal anti-CEACAM5 antibody Agilent Dako #M7072 clone II7
[1]
  quotient of MFI of antibody divided by MFI of secondary antibody only control: 3.8
[2]
  quotient of MFI of antibody divided by MFI of secondary antibody only control: 1.1
